Laboratory results reported in publication PMC9818519.

Each sequence was assayed against His-HAT1 (Homo sapiens) (UniProt O14929) (assay: ELONA). Details: ELONA: PBS + 1 mM MgCl2 (selection buffer), 37 °C, 1 h; 100 ng HAT1/well adsorbed; 0.2% BSA block; aptamers heated 95 °C 10 min then ice 10 min.
Sequence of UniProt O14929 (O14929 whole entry): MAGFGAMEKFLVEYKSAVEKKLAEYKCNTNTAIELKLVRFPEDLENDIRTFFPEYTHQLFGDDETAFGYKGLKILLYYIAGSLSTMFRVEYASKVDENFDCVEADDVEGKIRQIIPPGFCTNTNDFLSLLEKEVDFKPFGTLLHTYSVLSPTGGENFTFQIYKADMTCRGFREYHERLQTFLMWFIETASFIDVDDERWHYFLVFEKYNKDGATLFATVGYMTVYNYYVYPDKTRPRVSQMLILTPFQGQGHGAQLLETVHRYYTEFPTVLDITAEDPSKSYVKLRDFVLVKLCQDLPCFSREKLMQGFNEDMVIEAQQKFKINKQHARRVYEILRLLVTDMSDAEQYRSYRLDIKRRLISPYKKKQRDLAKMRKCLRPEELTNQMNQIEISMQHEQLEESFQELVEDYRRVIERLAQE

Sequence | Kd [µM]
GTTGCTCGTATTTAGGGCGGGGGGGCGGGGGAGGAGGTGGCGGGAATATCCATTGTCTACACCAGTCTTCATCCGC [apHAT610 (610R)] | 0.0281
GCGGATGAAGACTGGTGTCGAGGGGGGGGCGGGCGGGTGGGTTGGCTCTTCATGCCTGTGCCCTAAATACGAGCAAC [apHAT63 (63F)] | 0.038
GCGGATGAAGACTGGTGTCGAGGGGGGGGCGGGCGGGTGGGTTGGCTCTTCATGCCTGTGCCC [apHAT63T] | 0.0437
